{
  "source": "patent US20170037110A1",
  "about": "(IMMATICS BIOTECHNOLOGIES, published 2017)",
  "data": [
    {"target": "T1, HLA-A*02:01 (human)", "T1 construct": "monomers captured on streptavidin plates; also called MHC class I", "test": "UV peptide exchange ELISA", "how_it_was_run": "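Peptide-MHC complexes formed by UV-triggered exchange of a cleavable peptide for the test peptide, with stabilised complexes indicating binding. Exchange products diluted 100 fold onto streptavidin-coated wells, 1h at 37° C.; HRP anti-β2m (2 μg/ml), TMB, absorbance at 450 nm gives exchange yield.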", "units": {"peptide exchange yield": "%"}, "values": [
      {"binder": "YTLPIASSIRL", "peptide exchange yield": "50 to 75"},
      {"binder": "GLLPTPITQQASL", "peptide exchange yield": "50 to 75"},
      {"binder": "WLLPYNGVTV", "peptide exchange yield": "50 to 75"},
      {"binder": "FLLEPGNLEV", "peptide exchange yield": "≥ 75"},
      {"binder": "ALWDIETGQQTTT", "peptide exchange yield": "50 to 75"},
      {"binder": "FLFDTKPLIV", "peptide exchange yield": "50 to 75"},
      {"binder": "ALFDAQAQV", "peptide exchange yield": "50 to 75"},
      {"binder": "VMYADIGGMDI", "peptide exchange yield": "50 to 75"},
      {"binder": "VIADGGIQNV", "peptide exchange yield": "20 to 50"},
      {"binder": "GLLDLPFRVGV", "peptide exchange yield": "≥ 75"},
      {"binder": "ALADLIEKELSV", "peptide exchange yield": "50 to 75"},
      {"binder": "KLNAEVACV", "peptide exchange yield": "50 to 75"},
      {"binder": "YVLEGLKSV", "peptide exchange yield": "50 to 75"},
      {"binder": "SVAEGRALMSV", "peptide exchange yield": "50 to 75"},
      {"binder": "LLLAHIIAL", "peptide exchange yield": "20 to 50"},
      {"binder": "TVTNAVVTV", "peptide exchange yield": "50 to 75"},
      {"binder": "ILLNNSGQIKL", "peptide exchange yield": "≥ 75"},
      {"binder": "VTVPPGPSL", "peptide exchange yield": "20 to 50"},
      {"binder": "YQIPRTFTL", "peptide exchange yield": "20 to 50"},
      {"binder": "LLADELITV", "peptide exchange yield": "50 to 75"},
      {"binder": "TLLVKVFSV", "peptide exchange yield": "50 to 75"},
      {"binder": "AVGPASILKEV", "peptide exchange yield": "20 to 50"},
      {"binder": "FLDPYCSASV", "peptide exchange yield": "20 to 50"},
      {"binder": "TLAPGEVLRSV", "peptide exchange yield": "50 to 75"},
      {"binder": "SLLPLDDIVRV", "peptide exchange yield": "50 to 75"},
      {"binder": "MLLTKLPTI", "peptide exchange yield": "50 to 75"},
      {"binder": "LLMPSSEDLLL", "peptide exchange yield": "50 to 75"},
      {"binder": "KLYESLLPFA", "peptide exchange yield": "50 to 75"},
      {"binder": "TLDITPHTV", "peptide exchange yield": "50 to 75"},
      {"binder": "VLLEAGEGLVTI", "peptide exchange yield": "50 to 75"},
      {"binder": "SLWQDIPDV", "peptide exchange yield": "50 to 75"},
      {"binder": "ILAQEQLVVGV", "peptide exchange yield": "50 to 75"},
      {"binder": "YLQLTQSEL", "peptide exchange yield": "50 to 75"},
      {"binder": "SLWPSPEQL", "peptide exchange yield": "20 to 50"},
      {"binder": "LLADLLHNV", "peptide exchange yield": "50 to 75"},
      {"binder": "RVWDISTVSSV", "peptide exchange yield": "50 to 75"},
      {"binder": "FLYDEIEAEVNL", "peptide exchange yield": "50 to 75"},
      {"binder": "VLSSLEINI", "peptide exchange yield": "20 to 50"},
      {"binder": "RLAEVGQYEQV", "peptide exchange yield": "20 to 50"},
      {"binder": "VLLQKIVSA", "peptide exchange yield": "50 to 75"},
      {"binder": "ALWENPESGEL", "peptide exchange yield": "20 to 50"},
      {"binder": "NLMEMVAQL", "peptide exchange yield": "20 to 50"},
      {"binder": "LLWDVPAPSL", "peptide exchange yield": "50 to 75"},
      {"binder": "YLEELPEKLKL", "peptide exchange yield": "50 to 75"},
      {"binder": "LLMPIPEGLTL", "peptide exchange yield": "50 to 75"},
      {"binder": "ILTEENIHL", "peptide exchange yield": "50 to 75"},
      {"binder": "ALQETPTSV", "peptide exchange yield": "20 to 50"},
      {"binder": "TLWYRSPEV", "peptide exchange yield": "20 to 50"},
      {"binder": "AMLENASDIKL", "peptide exchange yield": "50 to 75"},
      {"binder": "KLYDDMIRL", "peptide exchange yield": "50 to 75"},
      {"binder": "YLISQVEGHQV", "peptide exchange yield": "50 to 75"},
      {"binder": "YLLQEPPRTV", "peptide exchange yield": "20 to 50"},
      {"binder": "VMFEDGVLMRL", "peptide exchange yield": "50 to 75"},
      {"binder": "ALIENLTHQI", "peptide exchange yield": "20 to 50"},
      {"binder": "LLMENAERV", "peptide exchange yield": "20 to 50"},
      {"binder": "GLLHLTLLL", "peptide exchange yield": "50 to 75"},
      {"binder": "TLYDIAHTPGV", "peptide exchange yield": "≥ 75"},
      {"binder": "SLMPHIPGL", "peptide exchange yield": "50 to 75"},
      {"binder": "KLYSVVSQL", "peptide exchange yield": "20 to 50"},
      {"binder": "FLTDLEDLTL", "peptide exchange yield": "50 to 75"},
      {"binder": "SLSEIVPCL", "peptide exchange yield": "50 to 75"},
      {"binder": "LAVHPSGVAL", "peptide exchange yield": "10 to 20"},
      {"binder": "LLLTTIPQI", "peptide exchange yield": "50 to 75"},
      {"binder": "LLQELVLFL", "peptide exchange yield": "50 to 75"},
      {"binder": "ALANQIPTV", "peptide exchange yield": "20 to 50"},
      {"binder": "FLDPGGPMMKL", "peptide exchange yield": "50 to 75"},
      {"binder": "ILDPISSGFLL", "peptide exchange yield": "20 to 50"},
      {"binder": "ILVANAIVGV", "peptide exchange yield": "50 to 75"},
      {"binder": "VMIAGKVAVV", "peptide exchange yield": "50 to 75"},
      {"binder": "KLVDRTWTL (probably a misprint of W as VV)", "peptide exchange yield": "50 to 75"},
      {"binder": "GLLENIPRV", "peptide exchange yield": "50 to 75"},
      {"binder": "SLLNQDLHWSL", "peptide exchange yield": "≥ 75"},
      {"binder": "SMLEPVPEL", "peptide exchange yield": "50 to 75"}
    ]}
  ]
}
